This is an account of results in the supplement of paper PMC10567573.

B1: CCND1 (parent)
chain: IRRAYPDANLLNDRVLRAMLKAEE
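Also: lentivirally expressed fusions sorted by FACS into six bins by GFP to DsRed ratio, PSI derived from sequencing read proportions per bin multiplied by bin number.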

In the series the parent is B1. Nature of the series: protein stability index of a GFP-peptide fusion (GPS, HEK-293T) (PSI 1-6); higher = more stable. As to conditions: c terminus: a fixed tail appended.
IRRAYPDCNLLNDRVLRAMLKAEE [A8C]: the protein stability index was found to be 2.78.
Under IRRAYPDKNLLNDRVLRAMLKAEE [A8K] stands 2.53.
Next, IRRAYPDNNLLNDRVLRAMLKAEE [A8N]: 3.46; IRRAYPDRNLLNDRVLRAMLKAEE [A8R]: 3.16.
Next, IRRAYPDHNLLNDRVLRAMLKAEE [A8H]: 2.28; IRRAYPDTNLLNDRVLRAMLKAEE [A8T]: 2.61.
Take IRRAYPDVNLLNDRVLRAMLKAEE [A8V]: the protein stability index amounted to 3.02.
Under IRRAYPDPNLLNDRVLRAMLKAEE [A8P] stands 3.03.
Under IRRAYPDFNLLNDRVLRAMLKAEE [A8F] stands 2.54; under IRRAYPDYNLLNDRVLRAMLKAEE [A8Y], 2.4.
Next, IRRAYPDLNLLNDRVLRAMLKAEE [A8L]: 2.04.
Turning to IRRAYPDSNLLNDRVLRAMLKAEE [A8S], the protein stability index worked out at 2.81.
Take IRRAYPDINLLNDRVLRAMLKAEE [A8I]: the protein stability index was 2.02.
As for IRRAYPDMNLLNDRVLRAMLKAEE [A8M], the protein stability index came out at 2.85.
With IRRAYPDANWLNDRVLRAMLKAEE [L10W], the protein stability index turned out to be 2.02.
Consider IRRAYPDANKLNDRVLRAMLKAEE [L10K], for which the protein stability index came to 3.23.
On to IRRAYPDANRLNDRVLRAMLKAEE [L10R], for which the protein stability index was 3.08.
Next, IRRAYPDANQLNDRVLRAMLKAEE [L10Q]: 3.38; IRRAYPDANNLNDRVLRAMLKAEE [L10N]: 3.58; IRRAYPDANHLNDRVLRAMLKAEE [L10H]: 2.94.
Under IRRAYPDANVLNDRVLRAMLKAEE [L10V] stands 2.49; under IRRAYPDANALNDRVLRAMLKAEE [L10A], 2.48; under IRRAYPDANPLNDRVLRAMLKAEE [L10P], 2.63.
As for IRRAYPDANDLNDRVLRAMLKAEE [L10D], the protein stability index stood at 3.97.
Take IRRAYPDANTLNDRVLRAMLKAEE [L10T]: the protein stability index came to 3.13.
For the variant IRRAYPDANILNDRVLRAMLKAEE [L10I], the protein stability index stood at 1.22.
For the variant IRRAYPDANYLNDRVLRAMLKAEE [L10Y], the protein stability index was found to be 3.34.
Next, IRRAYPDANSLNDRVLRAMLKAEE [L10S]: 2.14.
Under IRRAYPDANFLNDRVLRAMLKAEE [L10F] stands 2.52; under IRRAGPDANLLNDRVLRAMLKAEE [Y5G], 2.14.
For the variant IRRADPDANLLNDRVLRAMLKAEE [Y5D], the protein stability index stood at 1.54.
On to IRRALPDANLLNDRVLRAMLKAEE [Y5L], for which the protein stability index came out at 3.07.
Next, IRRAEPDANLLNDRVLRAMLKAEE [Y5E]: 2.51.
Under IRRAAPDANLLNDRVLRAMLKAEE [Y5A] stands 3.33; under IRRAWPDANLLNDRVLRAMLKAEE [Y5W], 2.13.
Next, IRRACPDANLLNDRVLRAMLKAEE [Y5C]: 2.9; IRRARPDANLLNDRVLRAMLKAEE [Y5R]: 2.53; IRRANPDANLLNDRVLRAMLKAEE [Y5N]: 2.43.
With IRRAHPDANLLNDRVLRAMLKAEE [Y5H], the protein stability index is 2.02.
Under IRRATPDANLLNDRVLRAMLKAEE [Y5T] stands 3.49; under IRRAKPDANLLNDRVLRAMLKAEE [Y5K], 3.3.
For the variant IRRAPPDANLLNDRVLRAMLKAEE [Y5P], the protein stability index came out at 3.69.
Next, IYRAYPDANLLNDRVLRAMLKAEE [R2Y]: 1.6; IFRAYPDANLLNDRVLRAMLKAEE [R2F]: 1.94; IPRAYPDANLLNDRVLRAMLKAEE [R2P]: 3.68.
Next, IQRAYPDANLLNDRVLRAMLKAEE [R2Q]: 3.03; IERAYPDANLLNDRVLRAMLKAEE [R2E]: 3.49.
Next, IARAYPDANLLNDRVLRAMLKAEE [R2A]: 3.82; IMRAYPDANLLNDRVLRAMLKAEE [R2M]: 3.37.
As for IWRAYPDANLLNDRVLRAMLKAEE [R2W], the protein stability index came out at 3.61.
Under IDRAYPDANLLNDRVLRAMLKAEE [R2D] stands 4.09; under IKRAYPDANLLNDRVLRAMLKAEE [R2K], 2.87; under IHRAYPDANLLNDRVLRAMLKAEE [R2H], 2.08.
Under ILRAYPDANLLNDRVLRAMLKAEE [R2L] stands 2.39; under ICRAYPDANLLNDRVLRAMLKAEE [R2C], 2.25.
Next, IIRAYPDANLLNDRVLRAMLKAEE [R2I]: 2.4; INRAYPDANLLNDRVLRAMLKAEE [R2N]: 2.84.
ITRAYPDANLLNDRVLRAMLKAEE [R2T]: the protein stability index was found to be 2.92.
Next, IRRTYPDANLLNDRVLRAMLKAEE [A4T]: 2.12.
Next, IRRVYPDANLLNDRVLRAMLKAEE [A4V]: 1.79; IRRRYPDANLLNDRVLRAMLKAEE [A4R]: 2.37; IRRWYPDANLLNDRVLRAMLKAEE [A4W]: 3.03.
Next, IRRQYPDANLLNDRVLRAMLKAEE [A4Q]: 2.37.
Regarding IRRIYPDANLLNDRVLRAMLKAEE [A4I], the protein stability index turned out to be 2.4.
Next, IRREYPDANLLNDRVLRAMLKAEE [A4E]: 2.04; IRRPYPDANLLNDRVLRAMLKAEE [A4P]: 3.12.
Under IRRHYPDANLLNDRVLRAMLKAEE [A4H] stands 2.4; under IRRNYPDANLLNDRVLRAMLKAEE [A4N], 2.59; under IRRYYPDANLLNDRVLRAMLKAEE [A4Y], 2.68.
As to IRRMYPDANLLNDRVLRAMLKAEE [A4M], the protein stability index is 2.58.
Consider IRRKYPDANLLNDRVLRAMLKAEE [A4K], for which the protein stability index was 2.3.
Turning to IRRLYPDANLLNDRVLRAMLKAEE [A4L], the protein stability index worked out at 1.84.
Next, IRRCYPDANLLNDRVLRAMLKAEE [A4C]: 2.17; IRRFYPDANLLNDRVLRAMLKAEE [A4F]: 1.4; IRRAYPTANLLNDRVLRAMLKAEE [D7T]: 2.23.
On to IRRAYPYANLLNDRVLRAMLKAEE [D7Y], for which the protein stability index was 2.13.
Take IRRAYPPANLLNDRVLRAMLKAEE [D7P]: the protein stability index stood at 2.09.
Under IRRAYPHANLLNDRVLRAMLKAEE [D7H] stands 2.14.
Under IRRAYPFANLLNDRVLRAMLKAEE [D7F] stands 1.65; under IRRAYPSANLLNDRVLRAMLKAEE [D7S], 2.43; under IRRAYPLANLLNDRVLRAMLKAEE [D7L], 1.84.
Next, IRRAYPAANLLNDRVLRAMLKAEE [D7A]: 1.83.
As to IRRAYPKANLLNDRVLRAMLKAEE [D7K], the protein stability index came out at 2.1.
In the case of IRRAYPEANLLNDRVLRAMLKAEE [D7E], the protein stability index was 2.06.
Under IRRAYPNANLLNDRVLRAMLKAEE [D7N] stands 3.11; under IRRAYPWANLLNDRVLRAMLKAEE [D7W], 2.36.
IRDAYPDANLLNDRVLRAMLKAEE [R3D]: the protein stability index turned out to be 4.23.
Under IRTAYPDANLLNDRVLRAMLKAEE [R3T] stands 3.17; under IRYAYPDANLLNDRVLRAMLKAEE [R3Y], 2.05.
Next, IRWAYPDANLLNDRVLRAMLKAEE [R3W]: 1.99; IRFAYPDANLLNDRVLRAMLKAEE [R3F]: 1.87; IRKAYPDANLLNDRVLRAMLKAEE [R3K]: 2.84.
Next, IRGAYPDANLLNDRVLRAMLKAEE [R3G]: 3.44.
Consider IRPAYPDANLLNDRVLRAMLKAEE [R3P], for which the protein stability index turned out to be 2.71.
